Three molecules from paper PMC5173319, “Crenactin forms actin-like double helical filaments regulated by arcadin-2” (eLife, 2016) can be followed below.

The chains are these.
B3: Pyrobaculum calidifontis crenactin (natural protein, UniProt A3MWN5 1-432, looked up)
chain: MGVISDAYRLKYTFGVDFGTSYVKYGPITLNEPKMVQTRGLFLRDLPESVKMRIPPDVLARGLVVGDEEVRKYLSSVRDVQRNLKYPLKDGVARRDDEEAWRVLKELARYTLAQFPVSDPEFAGWLVAVALSALAPDYMYKAIFDIYDELASEFKIYAVTILPQPLAVAIAENAVNCVIVEGGHGNIQVAPISFALIREGLVALNRGGAEANAITREILKDIGYSDIAREEYAVEVVKRAVGLVPRRLKEAIRAAKSDPDRFVTKVRLSPVVEVEIPREYAWTRFLIGEIVFDPNHEEIKSYIEQSRLRIENAVIGDVTLYGEMDVASAIITSLRNVSVEIQERVASQIILSGGAFSWRVPPGMEDVAADSVTRVKIALEEKSPALASKVEVRLVSEPQYSVWRGAVIYGYALPLSLEWSDTTREGWRFPRR
notes: codon-optimised gene in pOPIN-S; Forms double-stranded helical filaments with ATP and MgCl2; The construct used for co-expression with arcadin-2 is not described; also called PCC; source: E. coli C41(DE3), purified (Ni-NTA, elution by SUMO tag cleavage with SENP1, Sephacryl S300); also co-expressed with arcadin-2 and purified as a complex; not shown: His6, N-terminal, cleaved; SUMO, N-terminal, …

Data set [1] has as its target B3. The data set can be described thus: SPR; crenactin immobilised by amide coupling on CM5 chip (~700 RU), Biacore T200, PBS-0.005% Tween 20, 20°C; arcadin-2 or arcadin-2ΔC in 1:2 dilution series from 2 µM; kinetic fits, Kd = koff/kon. The note with it: both partners purified. A general note: Surface plasmon resonance follows binding to a sensor surface in real time, without labels.

In data set [2] the target is B3. The data set can be described thus: crystal structure; crenactin at 7 mg/ml mixed with arcadin-2 peptide at molar ratio 1 to 3; 0.31 M sodium acetate, 12.8% PEG 4000, 0.1 M sodium acetate pH 4.5; 1.6 Å. The following applies: both partners purified.
Data set [3] deals with the molecule itself. The data set can be described thus: cryo-EM structure; crenactin 0.5-1 mg/ml in 50 mM NH4HCO3, 20 mM KCl, polymerised with 2 mM ATP and 4 mM MgCl2 for 30 min on ice; helical reconstruction in RELION 2.0.

As usually defined, the Kd is the constant that tells how readily two partners part at equilibrium.

B1: Pyrobaculum calidifontis arcadin-2 (natural protein, UniProt A3MWN6 1-203, looked up)
chain: MDFPKVLLIRHFTEVLGMKYAGEGGEVLWFEEGLNRVAVGIYFTDLYEEAELYKRVGALMGLGASKVFLAVLPDALAFVDPRYFKANGVGLVVVDPAKGVDGVEVKIFARARPAAVEPLKIDAVKAALHEYLASELKRVEESLFEKVRRYVDQRVEEVKRALQAVEEAKRAAPPVQRAAAESAQEPRGGIGENEWVKILRSKR
notes: arcadin-2, Pyrobaculum calidifontis, NCBI WP_011850311.1; untagged, native protein from pHis17; The construct used for co-expression with crenactin is not described; also called full-length arcadin-2; source: E. coli C41(DE3), purified (heat step 60°C, ammonium sulphate precipitation, Sephacryl S300); also co-expressed with crenactin and purified as a complex
Regarding B1, in data set [1], the Kd amounted to 31 nM.

B2: arcadin-2 C-terminal peptide (residues 187-203) (peptide, UniProt A3MWN6 187-203, looked up)
peptide: RGGIGENEWVKILRSKR
notes: arcadin-2, Pyrobaculum calidifontis, NCBI WP_011850311.1, residues R187 to R203 (the last 17 amino acids); also called arcadin-2 peptide; C-peptide; source: synthetic peptide (Generon, U.K)
In the case of B2, the binding result in data set [2] is “binds”. Regarding B3, the binding result in data set [3] is listed as “binds”.
